Numbering of substitutions follows the chain as printed. Each block holds one binder with its values, some of them ahead of it.
Experiments:
[1] = target: human Vascular-Endothelial Growth Factor (VEGF) (Homo sapiens, UniProt P15692-4); assay: SPR
hen egg-white lysozyme = hen egg-white lysozyme (Gallus gallus, UniProt P00698); assay: SPR
Sequence of hen egg-white lysozyme (P00698 19-147): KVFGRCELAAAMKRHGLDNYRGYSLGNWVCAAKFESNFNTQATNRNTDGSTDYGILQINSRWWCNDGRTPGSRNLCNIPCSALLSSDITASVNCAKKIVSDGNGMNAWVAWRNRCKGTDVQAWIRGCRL

- kon [1]: 327000 M⁻¹ s⁻¹
B1: G6^des1, Fab (Fab, V domains shown)
VH: EVQLVESGGGLVQPGGSLRLSCAASGFTISDYWIHWVRQAPGKGLEWVAGITPAGGYTHYADSVKGRFTISADTSKNTAYLQMNSLRAEDTAVYFCARFVFFLPYAMDYWGQGTLVTVSS
VL: DIQMTQSPSSLSASVGDRVTITCRASQDVSTAVAWYQQKPGKPPKLLIFSASFLFSGVPSRFSGSGSGTDFTLTISSLQPEDFATYYCLQSYTVTPTFGPGTKVEIK

- Kd [1]: 0.06 nM
- koff [1]: 3.2e-05 s⁻¹
- kon [1]: 530000 M⁻¹ s⁻¹
B2: G6^des13, Fab (Fab, V domains shown)
VH: B1 VH
VL: B1 VL with F49Y, F55Y, V94D, P100Q

- Kd (hen egg-white lysozyme): 15 nM
- koff (hen egg-white lysozyme): 0.00079 s⁻¹
- kon (hen egg-white lysozyme): 53000 M⁻¹ s⁻¹
B3: D44.1^des, Fab (Fab, V domains shown)
VH: QVQLQESGAEVMKPGASVKISCKATGYTFSTYWIEWMKQRPGGGLEYIGEILPGSGSTYYNEKFKGKATFTADTSSNTAYMQLSSLTSEDSAVYYCARGDGYYKYWGQGTTLTVSS
VL: DIELTQSPATLSVTPGDSVSLSCRASQSISNNLHWYQQKSHEPPRLLIKYVSQSVSGIPSRFSGSGSGTDFTLSINSVETEDFGMYFCGQSNSWPRTFGGGTKLEIK
